Article PMC11255602

How the values were obtained:
[1] = target: PRMT1 E27 (N-terminal truncation lacking the first 26 amino acids) (UniProt Q99873); assay: native gel or EMSA
[2] = target: PRMT1 S14 (N-terminal truncation lacking the first 13 amino acids) (UniProt Q99873); assay: native gel or EMSA

stoichiometry N [1] | stoichiometry N [2] | Substance
4 |  | PRMT1 E27 (N-terminal truncation lacking the first 26 amino acids) (from UniProt Q99873-3 27-353) (domain or fragment)
 | 4 | PRMT1 S14 (N-terminal truncation lacking the first 13 amino acids) (from UniProt Q99873-3 14-353) (domain or fragment)
